First the molecules themselves.
B1: CCHC-type zinc finger nucleic acid binding protein (Homo sapiens), P62633 (parent)
chain: MSSNECFKCGRSGHWARECPTGGGRGRGMRSRGRGGFTSDRGFQFVSSSLPDICYRCGESGHLAKDCDLQEDACYNCGRGGHIAKDCKEPKREREQCCYNCGKPGHLARDCDHADEQKCYSCGEFGHIQKDCTKVKCYRCGETGHVAINCSKTSEVNCYRCGESGHLARECTIEATA

The variants in the assay derive from B1. Particulars: with anm1_rat Prmt1, Q63009.
Chain of anm1_rat Prmt1, Q63009 (Q63009 whole entry, looked up): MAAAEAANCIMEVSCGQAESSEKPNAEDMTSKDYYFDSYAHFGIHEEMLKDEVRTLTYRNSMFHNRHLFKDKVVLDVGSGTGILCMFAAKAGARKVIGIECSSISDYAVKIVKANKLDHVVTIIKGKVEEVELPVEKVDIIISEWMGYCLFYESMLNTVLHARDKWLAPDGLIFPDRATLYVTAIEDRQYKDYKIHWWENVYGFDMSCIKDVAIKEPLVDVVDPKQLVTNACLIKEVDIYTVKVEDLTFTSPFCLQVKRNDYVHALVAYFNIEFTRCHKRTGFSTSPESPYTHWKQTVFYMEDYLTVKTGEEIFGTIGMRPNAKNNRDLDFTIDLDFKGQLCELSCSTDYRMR
With R25A;R27A, the “effect of a mutation on the interaction” value was “decreasing interaction”.

For the origin of these results see IntAct's records for PubMed 24726729.
